In article PMC2627783:
Where a chain is given by its changes, count along the chain named. Names and notes keep the numbering of the source. Blank lines part the entries; values can stand above or below the binder they belong to.

Molecular target: HscA (UniProt P0A6Z1)
Sequence (P0A6Z1 whole entry): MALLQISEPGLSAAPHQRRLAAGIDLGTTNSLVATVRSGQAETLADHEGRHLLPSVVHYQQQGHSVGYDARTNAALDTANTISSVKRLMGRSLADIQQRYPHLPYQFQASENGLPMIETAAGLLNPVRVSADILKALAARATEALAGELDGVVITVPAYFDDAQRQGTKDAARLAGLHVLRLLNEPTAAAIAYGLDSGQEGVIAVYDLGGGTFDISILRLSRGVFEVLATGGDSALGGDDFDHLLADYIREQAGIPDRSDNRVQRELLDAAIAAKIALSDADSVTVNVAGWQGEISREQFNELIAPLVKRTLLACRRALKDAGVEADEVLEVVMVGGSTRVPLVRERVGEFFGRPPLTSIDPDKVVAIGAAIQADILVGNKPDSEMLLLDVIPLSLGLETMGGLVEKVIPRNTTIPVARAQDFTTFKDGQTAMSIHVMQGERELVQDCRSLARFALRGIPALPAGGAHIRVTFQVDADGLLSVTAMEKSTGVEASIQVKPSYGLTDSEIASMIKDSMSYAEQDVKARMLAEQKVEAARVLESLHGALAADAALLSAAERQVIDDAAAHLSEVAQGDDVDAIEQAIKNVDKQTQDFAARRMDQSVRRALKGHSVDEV

- HscA ATPase activity, 23 °C, in the absence of IscU: maximal stimulation: 4.3 fold
B1: HscB(E97A,E100A,E104A) (natural protein)
chain: MDYFTLFGLPARYQLDTQALSLRFQDLQRQYHPDKFASGSQAEQLAAVQQSATINQAWQTLRHPLMRAEYLLSLHGFDLASEQHTVRDTAFLMEQLALRAELDAIEQAKDEARLESFIKRVKKMFDTRHQLMVEQLDNETWDAAADTVRKLRFLDKLRSSAEQLEEKLLDF

- HscA ATPase activity, 23 °C, in the absence of IscU: maximal stimulation: 3.8 fold
B2: HscB(L92A,M93A,F153A) (natural protein)
chain: B1 chain with L92A, M93A, A97E, A100E, A104E, F153A
